We go through one protein from article PMC3901155.

Substrate in this data set: Nc1ncnc2c1ncn2[C@@H]1O[C@H](COP(=O)(O)O)[C@@H](OP(=O)(O)O)[C@H]1O
Briefly: purified protein. In kind it is biochemical, Rattus norvegicus. The note with it: 5 mM p-nitrophenyl sulfate, pH 7.0, 37 °C.

B1: AST-IV (Rattus norvegicus) (protein)
chain: MEFSRPPLVHVKGIPLIKYFAETIGPLQNFTAWPDDLLISTYPKSGTTWMSEILDMIYQGGKLEKCGRAPIYARVPFLEFKCPGVPSGLETLEETPAPRLLKTHLPLSLLPQSLLDQKVKVIYIARNAKDVVVSYYNFYNMAKLHPDPGTWDSFLENFMDGEVSYGSWYQHVKEWWELRHTHPVLYLFYEDIKENPKREIKKILEFLGRSLPEETVDSIVHHTSFKKMKENCMTNYTTIPTEIMDHNVSPFMRKGTTGDWKNTFTVAQNERFDAHYAKTMTDCDFKFRCEL
One may read the Km as the substrate concentration at which the rate is half of its maximum. Regarding B1, the Km is 25.3 µM.
